Source: patent US20150044214A1 (Hoffmann-La Roche, published 2015)

Target: T1, human VEGF-A (human, UniProt P15692-4 27-191)
T1 construct: ELISA methods name 'full-length VEGF165-His protein (R&D Systems)'; Biacore methods name rhVEGF (R&D Systems Cat. No. 293-VE); also called VEGF165; VEGF165-His
Experiment: ELISA and Biacore (SPR), incl. simultaneous binding (bridging ELISA, sandwich SPR)

T1 sequence (P15692 other isoform, or with tags, fused parts or gaps limits assumed): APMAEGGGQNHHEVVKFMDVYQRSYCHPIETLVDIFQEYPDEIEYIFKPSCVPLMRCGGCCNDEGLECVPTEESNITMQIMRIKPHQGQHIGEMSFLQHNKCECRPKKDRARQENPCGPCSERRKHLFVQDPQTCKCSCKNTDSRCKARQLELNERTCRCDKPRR

binding result: binds
B1: bispecific, tetravalent antigen binding protein recognizing Ang-2 and VEGF-A (bispecific antibody, human IgG1, kappa)
heavy 1: not shown
light 1: QPGLTQPPSVSVAPGQTARITCGGNNIGSKSVHWYQQKPGQAPVLVVYDDSDRPSGIPERFSGSNSGNTATLTISRVEAGDEADYYCQVWDSSSDHYVFGTGTKVTVLRTVAAPSVFIFPPSDEQLKSGTASVVCLLNNFYPREAKVQWKVDNALQSGNSQESVTEQDSKDSTYSLSSTLTLSKADYEKHKVYACEVTHQGLSSPVTKSFNRGEC
heavy 2: not shown
light 2: DIQMTQSPSSLSASVGDRVTITCSASQDISNYLNWYQQKPGKAPKVLIYFTSSLHSGVPSRFSGSGSGTDFTLTISSLQPEDFATYYCQQYSTVPWTFGQGTKVEIKSSASTKGPSVFPLAPSSKSTSGGTAALGCLVKDYFPEPVTVSWNSGALTSGVHTFPAVLQSSGLYSLSSVVTVPSSSLGTQTYICNVNHKPSNTKVDKKVEPKSC
notes: Expressed transiently in HEK293F cells; also called bispecific tetravalent <VEGF-Ang-2> antibody; <Ang-2, VEGF> bispecific tetravalent antibody
